The values that follow come from patent US20050266469.

The target of this data set is T1, peptide derived from the known CHK1 kinase substrate CDC25C (GLYRSPSMPENLNR).
T1 chain: GLYRSPSMPENLNR

B1: CHK1sv1-His-tagged protein (protein)
chain: MAVPFVEDWDLVQTLGEGAYGEVQLAVNRVTEEAVAVKIVDMKRAVDCPENIKKEICINKMLNHENVVKFYGHRREGNIQYLFLEYCSGGELFDRIEPDIGMPEPDAQRFFHQLMAGVVYLHGIGITHRDIKPENLLLDERDNLKISDFGLATVFRYNNRERLLNKMCGTLPYVAPELLKRREFHAEPVDVWSCGIVLTAMLAGELPWDQPSDSCQEYSDWKEKKTYLNPWKKIDSAPLALLHKILVENPSARITIPDIKKDRWYNKPLKKGAKRPRVTSGGVSESPSGFSKHIQSNLDFSPVNSASRTPGSGWSKEHHHHHH
Regarding B1, the “Km (CDC25C substrate)” value was determined as 120 µM and the Vmax is listed as 36 nmol/min/µg.
